Experimental data as given in patent US20240166738A1 (priority 2021, published 2024).

B1: TM-3: anti-TMEM106B monoclonal antibody; CDR-H1-3 SEQ ID NO: 4, 37, 80; CDR-L1-3 SEQ ID NO: 122, 162, 186 (antibody, V domains shown)
VH: QVTLKESGPGIVQPSQTLSLTCSFSGFSLNTLGRGVGWIRQPSGKGLEWLAKIWWNDDKFYYPALKSRLTISKDTSKNQIFLKIANVDTADSATYYCARIAGGTGAAYWGQGTTLTVSS
VL: DIVMTQAAFSNPVTLGTSASISCRSSKSLLHSNGITYLYWYLQKPGQSPQLLISQMSSLASGVPDRFSSGGSGTDFTLRISRVEAEDVGVFYCAQNLELPWTFGGGTKLELK
B2: TM-60: anti-TMEM106B monoclonal antibody; VH SEQ ID NO: 413, VL SEQ ID NO: 502 (antibody, V domains shown)
VH: QVQLQQSGPELVKPGASVKLSCKASGYTFTSYDINWVKQRPGQGLEWIGWIYPRDGNTQYIEKLKGKATLTVDTSSSTAYMELHSLTSEDSAVYFCARWIFYAMDYWGQGTSVTVSS
VL: DVLMTQTPLSLPVSLGDQASISCRSSQSIVHGNGNTYLEWYLQKPGQSPKLLIYKVSNRFSGVPDRFSGSGSGTDFTLKISRVEAEDLGVYYCFQGSHLPYTFGGGTKLEIK
modifications: Variable Heavy Chain -- TM-48, TM-60; Variable Light Chain -- TM-60
B3: TM-61: anti-TMEM106B monoclonal antibody; VH SEQ ID NO: 467, VL SEQ ID NO: 503 (antibody, V domains shown)
VH: QVQLQQSGAELAKPGASVKLSCKASGYTFTNYWMNWVKQRPGQGLEWIGYINPSSDYTKYNQNFKDKATLTADKSSSTAYMQLNSLTYEDSAVYYCTRWGGSRSYWYFDVWGAGTTVTVSS
VL: DIVMTQSPSSLSASAGEKVTMSCKSSQSLLNSGNQKNYLAWYQQKPGQSPKLLIYGASTRESGVPDRFTGSGSGTDFTLTISSVQAEDLAVYYCQNDSNYPFTFGGGTKLEMK
modifications: Variable Heavy Chain -- TM-61; Variable Light Chain -- TM-61
B4: TM-76: anti-TMEM106B monoclonal antibody; VH SEQ ID NO: 481, VL SEQ ID NO: 516 (antibody, V domains shown)
VH: QVTLKESGPGILQPSQTLSLTCSFSGFSLSTSGMGVSWIRKPSGKGLEWLAHIFWDDDKRYNLFLKSRLTVSKDTSSNQVFLMITSVDTTDTATYYCARMGRQRDYFDYWGQGTSLTVSS
VL: QIILTQSPAIMSASLGEEITLTCSASLSISYVHWYQQKSGASPKLLIYGTSNLASGVPSRFSGSGSGTFYSLTISSVEAEDAADYYCHQWSIYRTFGGGTKLEMK
modifications: Variable Heavy Chain -- TM-76; Variable Light Chain -- TM-76
B5: TM-9: anti-TMEM106B monoclonal antibody; CDR-H1-3 SEQ ID NO: 10, 43, 86; CDR-L1-3 SEQ ID NO: 122, 168, 186 (antibody, V domains shown)
VH: EVQLVESGGDLVKPGGSLKLSCVASGFTFSGYGMSWVRQTPDKRLEWVATISSGSFYIYYPDSVKGRLTVSRDNAKNTLYLQMSSLKSEDTAIYYCARQNFYYGCEDYWGQGTTLTVSS
VL: DIVMTQAAFSNPVTLGTSASISCRSSKSLLHSNGITYLYWYLQKPGQSPQLLIYQMSNLASGVPNRFSSSGSGTDFTLRISRVEAEDVGVYYCAQNLELPWTFGGGTKLEIK
B6: TM-10: anti-TMEM106B monoclonal antibody; CDR-H1-3 SEQ ID NO: 11, 44, 87; CDR-L1-3 SEQ ID NO: 128, 169, 192 (antibody, V domains shown)
VH: QVQLQQSGAELVKPGASVKISCKGSGYAFSSYWMNWVKQRPGKGLEWIGQIYPGDGDTNYNGKFKGKATLTADKSSTTAYIHLSSLTSEDSAVYFCARWGHYDEAMDDWGQGTSVTVSS
VL: DVVMTQTPLSLPVSLGDQASISCRSSQSLVHSNGKTYLHWYVQKPGQSPKLLIYKISNRFSGVPDRFSGSGSGTDFTLKISRVEAEDLGVYFCSQITHVPWTFGGGTKLESK
B7: TM-11: anti-TMEM106B monoclonal antibody; CDR-H1-3 SEQ ID NO: 12, 45, 88; CDR-L1-3 SEQ ID NO: 129, 170, 193 (antibody, V domains shown)
VH: QVQLKQSGPGQVQPSQSLSITCTVSGFSLSDYGVHWVRQSPGKGLEWLGVIWNNGNTDYNAAFISRLSINKDNSKSQVFFKMTSLQADDTAIYYCVRSLRPLHFDYWGQGTTVTVSS
VL: DIVMTQSPSSLTMSVGQKVTMHCKSSQSLLNSNNLQNYLAWYQQKPGQSPTLLVYFASIRESGVPDRFIGSGSGTDFTLTISSVQAEDLADYFCQQHYNTPFTFGSGTKLEIR
B8: TM-12: anti-TMEM106B monoclonal antibody; CDR-H1-3 SEQ ID NO: 13, 46, 89; CDR-L1-3 SEQ ID NO: 130, 169, 194 (antibody, V domains shown)
VH: EVQLQQSGAELMRPGASVKLSCTASGFNIQDYYMYWVKQRPEQGLEWIGRIDPEDGDAEYAPKFQGKATMTADTSSNTAYLQLSSLTSEDTAVYYCSTRVIYDGYYRTMDCWGQGTSVTVSS
VL: DVLMTQIPLSLPVSLGDQASISCRSSQTIVHSNGNTYLEWYLKKPGQSPKLLIDKISNRFSGVPDRFSGSGSGTDFTLKISRVEAEDLGVYYCFQGSHVPYTFGGGTKLEIK
B9: TM-13: anti-TMEM106B monoclonal antibody; CDR-H1-3 SEQ ID NO: 14, 47, 90; CDR-L1-3 SEQ ID NO: 131, 171, 195 (antibody, V domains shown)
VH: QVQLQQSGAELVKPGASVKMSCKASGYTFTTFPIEWMKQSHGKGLEWIGNFHPYNDDTKYNEKFKGKATLTVDKSSSTVYLDLSRLTSDDSAVYYCARYFYGGMDYWGQGTSVTVSS
VL: DIQMTQSPASLSVSVGETVTITCRASENIYSSLGWYQQKQGESPQLLVFAATNLADGVPSRFSGSGSGTQYSLKINSLQSEDFGTYYCQHLWSIPWTFGGGTRLEIK
B10: TM-18: anti-TMEM106B monoclonal antibody; CDR-H1-3 SEQ ID NO: 5, 52, 95; CDR-L1-3 SEQ ID NO: 135, 174, 199 (antibody, V domains shown)
VH: EVRLQQSGPELVKPGASVKISCKTSGYTFTDYYMNWVKQSHGKSLEWIVNINPNNGDAFYNQKFKGKATLTVDKSSNTAYLDLRSLTSEDSAVYYCAREGQLRLRRVYAMDYWGQGTSVTVSS
VL: DIVLAQSPASLAVSLGQRATISCRASKSVSISVYTYVHWYQQKPGQPPKLLIYLASNLESGVPARFSGSGSGTDFTLNIHPVEEEDAATYYCQHSRELPYTFGGGTKLEIK
B11: TM-19: anti-TMEM106B monoclonal antibody; CDR-H1-3 SEQ ID NO: 13, 53, 96; CDR-L1-3 SEQ ID NO: 136, 175, 200 (antibody, V domains shown)
VH: DVQLQQSGAELVRPGASVKLSCTASGFNIKDYYMYWVKQRPEQGLEWIGRIDPEDGDTENAPKFRGMATMTADTSSNTAYLQLNSLTSEDTAVYYCTTRIGNLYHVMDYWGHGTSVTVSS
VL: DVLMTQTPLSLPVSLGDQASISCRSSQSIVHSNGNTYLEWYLQKPGQAPKLLIDKVFNRFSGVPDRFSGSGSGTDFTLKISRVEAEDLGVYYCFQGSHVPFTFGSGTKLEIK

Molecular target: GST-TMEM106B (truncated, comprising amino acids 122-210 of SEQ ID NO:1) (Homo sapiens, UniProt Q9NUM4)
Assay: Pre-mix epitope binning of anti-TMEM106B antibodies (Carterra / Lake Pharma)
Assay type: binding
Set-up: key to epitope bin: Bin 1: competes for binding to the same or overlapping TMEM106B region as the TM1, TM17, TM22, TM26, TM79, and/or TM82 antibodies; Bin 2: competes for binding to the same or overlapping TMEM106B region as the TM3, TM9, TM10, TM11, TM12, TM13, TM18, TM19, TM21, TM24, TM25, TM32, TM35, TM37, TM42, TM45, TM48, TM54, TM59, TM60, TM61, and/or TM76 antibodies; Bin 3: competes for binding to the same or overlapping TMEM106B region as the TM7, TM15, TM83, and/or TM84 antibodies; Bin 4: competes for binding to the same or overlapping TMEM106B region as the TMS, TM28, TM29, TM30, TM63, TM64, TM72, TM78, TM80, TM86, and/or TM88 antibodies; Bin 5: does not bind to a truncated TMEM106B comprising amino acids 122-210 of SEQ ID NO:1
Conditions: for epitope bin: competition for binding to truncated GST-TMEM106B (amino acids 122-210); for Binding Community/Bin: epitope bin number, pre-mix binning on truncated GST-TMEM106B
Procedure: (§1) Monoclonal anti-TMEM106B antibodies were immobilized to a CMD 50M chip (Xantec # SPMXCMD5OM lot# SCCMD50M0416). The running buffer was HBS-EP+ with 1 mg/mL BSA. The GST-TMEM106B (truncated, comprising amino acids 122-210 of SEQ ID NO:1) antigen was prepared at a final concentration of 55 nM (corresponding to 2 μg/mL) and mixed with the competing analyte anti-TMEM106B antibodies at a final concentration of 333 nM (corresponding to 50 μg/mL) or compared to a buffer control. Samples were injected for 5 minutes over the array and regenerated after every cycle with 1 minute of two parts Pierce IgG-Elution buffer (ThermoFisher Cat#21004) and 1 part of 10 mM Glycine, pH 2.0 (Carterra).
Anti-TMEM106B antibodies sorted into various competing bins and resulting binning profiles. […] Antibodies within Bin 3 or Bin 4 partially block Bin 2 antibodies.
as §1, with “SPMXCMD50M” for “SPMXCMD5OM”, “lmg/ml” for “1 mg/mL”, “(truncated)” for “(truncated, comprising amino acids 122-210 of SEQ ID NO:1)”, “μg/ml)” for “μg/mL)”

Sequence of GST-TMEM106B (truncated, comprising amino acids 122-210 of SEQ ID NO:1) (Q9NUM4 122-210): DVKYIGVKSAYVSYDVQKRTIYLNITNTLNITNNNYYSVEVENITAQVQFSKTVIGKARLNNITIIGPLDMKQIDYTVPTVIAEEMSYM

Row | Molecule | epitope bin | Binding Community/Bin
1 | B1 | Bin 2 | 2
2 | B2 | Bin 2 | 2
3 | B3 | Bin 2 | 2
4 | B4 | Bin 2 | 2
5 | B5 | Bin 2 | 2
6 | B6 | Bin 2 | 2
7 | B7 | Bin 2 | 2
8 | B8 | Bin 2 | 2
9 | B9 | Bin 2 | 2
10 | B10 | Bin 2 | 2
11 | B11 | Bin 2 | 2
